Substrate: O=C(O)CNC(=O)CNC(=O)CNC(=O)c1ccccc1
Test: ACE assay: hydrolysis of ^3H-HipGlyGly by human serum, Lineweaver-Burke Km
Assay type: biochemical
Settings: other: human serum, pH 8.0, 37° C., 60 min
Procedure: The following sample illustrates the preferred assay method, the sensitivity of the assay and the Km for ^3 H-HipGlyGly. The reaction buffer contains 0.05 M Hepes, 0.1 M sodium chloride and 0.6 M sodium sulphate at pH 8.0. (Pepes is N-2-Hydroxyethyl piperazine N'-2-ethane sulfonic acid.) The substrate, ^3 H-HipGlyGly was dissolved in reaction buffer at a concentration of 16 mM and a specific radioactivity of about 0.15 millicuries/millimole. Serum was prepared from fresh whole blood by standard techniques. […] Hemolyzed samples were not used in the assay. Serum samples could be stored at least for one week at 2° C. to 8° C. or for at least 8 weeks frozen, prior to assaying. For the assay, 50 μl. of serum was diluted with 200 μl. of reaction buffer. […]
A control determination of background radioactivity was made using 50 μl. of reaction buffer instead of diluted serum in the reaction mixture. […] Total radioactivity was determined by counting an amount of substrate equal to that used in the reaction mixture directly in the scintillation counter.
Reaction velocity, in terms of nanomoles of product formed per minute per ml of serum was calculated according to the following formula: [formula] In this formula, "nmoles" means nanomoles, "min" means minutes, "ml" means milliliters and "cpm" means radioactivity counts per minute. […]

B1: angiotensin converting enzyme (ACE) (Homo sapiens) (protein)
chain: LDPGLQPGNFSADEAGAQLFAQSYNSSAEQVLFQSVAASWAHDTNITAENARRQEEAALLSQEFAEAWGQKAKELYEPIWQNFTDPQLRRIIGAVRTLGSANLPLAKRQQYNALLSNMSRIYSTAKVCLPNKTATCWSLDPDLTNILASSRSYAMLLFAWEGWHNAAGIPLKPLYEDFTALSNEAYKQDGFTDTGAYWRSWYNSPTFEDDLEHLYQQLEPLYLNLHAFVRRALHRRYGDRYINLRGPIPAHLLGDMWAQSWENIYDMVVPFPDKPNLDVTSTMLQQGWNATHMFRVAEEFFTSLELSPMPPEFWEGSMLEKPADGREVVCHASAWDFYNRKDFRIKQCTRVTMDQLSTVHHEMGHIQYYLQYKDLPVSLRRGANPGFHEAIGDVLALSVSTPEHLHKIGLLDRVTNDTESDINYLLKMALEKIAFLPFGYLVDQWRWGVFSGRTPPSRYNFDWWYLRTKYQGICPPVTRNETHFDAGAKFHVPNVTPYIRYFVSFVLQFQFHEALCKEAGYEGPLHQCDIYRSTKAGAKLRKVLQAGSSRPWQEVLKDMVGLDALDAQPLLKYFQPVTQWLQEQNQQNGEVLGWPEYQWHPPLPDNYPEGIDLVTDEAEASKFVEEYDRTSQVVWNEYAEANWNYNTNITTETSKILLQKNMQIANHTLKYGTQARKFDVNQLQNTTIKRIIKKVQDLERAALPAQELEEYNKILLDMETTYSVATVCHPNGSCLQLEPDLTNVMATSRKYEDLLWAWEGWRDKAGRAILQFYPKYVELINQAARLNGYVDAGDSWRSMYETPSLEQDLERLFQELQPLYLNLHAYVRRALHRHYGAQHINLEGPIPAHLLGNMWAQTWSNIYDLVVPFPSAPSMDTTEAMLKQGWTPRRMFKEADDFFTSLGLLPVPPEFWNKSMLEKPTDGREVVCHASAWDFYNGKDFRIKQCTTVNLEDLVVAHHEMGHIQYFMQYKDLPVALREGANPGFHEAIGDVLALSVSTPKHLHSLNLLSSEGGSDEHDINFLMKMALDKIAFIPFSYLVDQWRWRVFDGSITKENYNQEWWSLRLKYQGLCPPVPRTQGDFDPGAKFHIPSSVPYIRYFVSFIIQFQFHEALCQAAGHTGPLHKCDIYQSKEAGQRLATAMKLGFSRPWPEAMQLITGQPNMSASAMLSYFKPLLDWLRTENELHGEKLGWPQYNWTPNSAR
notes: Serum was prepared from fresh whole blood by standard techniques; from tissue; host or cells: serum (unfractionated)
Km: 6.25 mM

— patent publication US4251628A, “Substrates for angiotensin converting enzyme” (priority 1978, dated 1981)
